Test results as given in patent publication US20190300603A1 (CRESCENDO BIOLOGICS, published 2019).

Molecular target: T1, recombinant human IL-17A (human, UniProt Q16552 24-155)
T1 construct: also called Peprotech cat# AF-200-17
T1 sequence: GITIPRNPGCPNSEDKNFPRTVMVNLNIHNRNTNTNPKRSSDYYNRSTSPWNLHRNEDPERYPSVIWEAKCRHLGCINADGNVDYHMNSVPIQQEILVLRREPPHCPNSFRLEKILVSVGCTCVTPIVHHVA
Experiment: ELISA

- binding result: binds
B1: VH domain as identified in SEQ ID NO: 1 (optimised anti-IL-17A single VH domain antibody) (VHH)
VHH: EVQLVESGGGLVQPGGSLRLSCAASGFTFSSYSMYWVRQAPGKGLEWVAEIKQDGSVQYYVSDVKGRFTISRDNAKNSLYLQMNSLRAEDTAVYYCAKGEILPLYFDYWGQGTLVTVSS
notes: Human VH single domain antibody (Humabody VH) without a light chain, from Tg/TKO mice and then optimised
